Measured values reported in paper PMC2064791 (The Journal of Cell Biology, 2007).
Each block holds one binder with its values, some of them ahead of it.

Target: T1, GST-tagged Dhh1(46–461) (S. cerevisiae, UniProt P39517 46-461)
T1 sequence (looked up): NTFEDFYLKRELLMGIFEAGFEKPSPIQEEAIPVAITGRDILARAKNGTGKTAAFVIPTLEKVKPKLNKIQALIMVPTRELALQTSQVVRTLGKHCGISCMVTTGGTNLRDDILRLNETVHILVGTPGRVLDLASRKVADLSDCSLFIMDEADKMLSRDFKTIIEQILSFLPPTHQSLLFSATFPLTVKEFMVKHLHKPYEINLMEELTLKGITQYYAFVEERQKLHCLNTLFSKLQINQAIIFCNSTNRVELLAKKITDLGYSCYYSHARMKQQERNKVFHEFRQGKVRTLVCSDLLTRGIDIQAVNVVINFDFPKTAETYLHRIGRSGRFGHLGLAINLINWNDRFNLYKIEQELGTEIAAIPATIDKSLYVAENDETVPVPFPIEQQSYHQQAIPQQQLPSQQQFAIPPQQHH
Experiment: pull-down

- binding result: binds
B1: His-Dcp2(1–300)-Flag (domain or fragment, S. cerevisiae, UniProt P53550 1-300, looked up)
chain: MSLPLRHALENVTSVDRILEDLLVRFIINCPNEDLSSVERELFHFEEASWFYTDFIKLMNPTLPSLKIKSFAQLIIKLCPLVWKWDIRVDEALQQFSKYKKSIPVRGAAIFNENLSKILLVQGTESDSWSFPRGKISKDENDIDCCIREVKEEIGFDLTDYIDDNQFIERNIQGKNYKIFLISGVSEVFNFKPQVRNEIDKIEWFDFKKISKTMYKSNIKYYLINSMMRPLSMWLRHQRQIKNEDQLKSYAEEQLKLLLGITKEEQIDPGRELLNMLHTAVQANSNNNAVSNGQVPSSQE

- binding result: binds
B2: His-Dcp2(102–300)-Flag (domain or fragment, S. cerevisiae, UniProt P53550 102-300, looked up)
chain: SIPVRGAAIFNENLSKILLVQGTESDSWSFPRGKISKDENDIDCCIREVKEEIGFDLTDYIDDNQFIERNIQGKNYKIFLISGVSEVFNFKPQVRNEIDKIEWFDFKKISKTMYKSNIKYYLINSMMRPLSMWLRHQRQIKNEDQLKSYAEEQLKLLLGITKEEQIDPGRELLNMLHTAVQANSNNNAVSNGQVPSSQE
